The results in this text go back to patent publication EP1947117A2.

The target of experiment [1] is human TSH receptor on CHO cells (CHO-hTSHR clone JP09) (human) (UniProt P16473). In words: cell-based or functional assay.
Experiment [2] concerns the target rat TSH receptor on FRTL-5 cells (rat) (UniProt P21463). The experiment is described as follows: cell-based or functional assay.
Experiment [3] addresses hCG receptor on MA-10 cells (transformed murine Leydig cells) (murine) (UniProt P30730). The experiment is described as follows: cell-based or functional assay.
Experiment [4] addresses porcine TSH receptor (solubilized porcine thyroid membranes) (porcine) (UniProt Q8SPP9). The experiment is described as follows: competitive displacement of 125I-bTSH from solubilized porcine thyroid membranes. For orientation: In a radioligand displacement assay an active substance lowers the binding of a labelled ligand.
Experiment [5] shares this target. In words: competitive binding assay to porcine thyroid membranes.
Experiment [6] addresses hCG receptor on MA-10 cells (transformed murine Leydig cells) (murine) (UniProt P30730). The experiment is described as follows: 125I-hCG receptor binding assay on MA-10 cells (Fig. 3b).

Chain of porcine TSH receptor (solubilized porcine thyroid membranes) (porcine) (Q8SPP9 22-764): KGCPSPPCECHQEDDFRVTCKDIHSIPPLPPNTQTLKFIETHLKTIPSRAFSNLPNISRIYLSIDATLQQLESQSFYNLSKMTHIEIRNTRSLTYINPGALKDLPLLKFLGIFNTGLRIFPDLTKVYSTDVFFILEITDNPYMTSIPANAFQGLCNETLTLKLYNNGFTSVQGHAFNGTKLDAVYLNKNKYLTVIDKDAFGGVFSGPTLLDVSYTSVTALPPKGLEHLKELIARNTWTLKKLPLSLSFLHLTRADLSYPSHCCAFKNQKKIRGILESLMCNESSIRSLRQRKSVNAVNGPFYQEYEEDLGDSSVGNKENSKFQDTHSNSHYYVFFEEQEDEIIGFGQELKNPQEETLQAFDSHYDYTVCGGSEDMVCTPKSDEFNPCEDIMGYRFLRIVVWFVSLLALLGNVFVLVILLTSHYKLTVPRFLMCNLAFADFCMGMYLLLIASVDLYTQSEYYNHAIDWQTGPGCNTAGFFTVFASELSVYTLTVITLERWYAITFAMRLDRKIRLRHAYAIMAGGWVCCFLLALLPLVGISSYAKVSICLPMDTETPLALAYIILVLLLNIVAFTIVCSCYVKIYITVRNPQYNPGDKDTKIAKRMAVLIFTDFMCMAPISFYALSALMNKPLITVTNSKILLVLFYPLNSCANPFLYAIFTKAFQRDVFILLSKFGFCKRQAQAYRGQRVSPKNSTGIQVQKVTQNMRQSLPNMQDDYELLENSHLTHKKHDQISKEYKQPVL
Chain of rat TSH receptor on FRTL-5 cells (rat) (P21463 22-764): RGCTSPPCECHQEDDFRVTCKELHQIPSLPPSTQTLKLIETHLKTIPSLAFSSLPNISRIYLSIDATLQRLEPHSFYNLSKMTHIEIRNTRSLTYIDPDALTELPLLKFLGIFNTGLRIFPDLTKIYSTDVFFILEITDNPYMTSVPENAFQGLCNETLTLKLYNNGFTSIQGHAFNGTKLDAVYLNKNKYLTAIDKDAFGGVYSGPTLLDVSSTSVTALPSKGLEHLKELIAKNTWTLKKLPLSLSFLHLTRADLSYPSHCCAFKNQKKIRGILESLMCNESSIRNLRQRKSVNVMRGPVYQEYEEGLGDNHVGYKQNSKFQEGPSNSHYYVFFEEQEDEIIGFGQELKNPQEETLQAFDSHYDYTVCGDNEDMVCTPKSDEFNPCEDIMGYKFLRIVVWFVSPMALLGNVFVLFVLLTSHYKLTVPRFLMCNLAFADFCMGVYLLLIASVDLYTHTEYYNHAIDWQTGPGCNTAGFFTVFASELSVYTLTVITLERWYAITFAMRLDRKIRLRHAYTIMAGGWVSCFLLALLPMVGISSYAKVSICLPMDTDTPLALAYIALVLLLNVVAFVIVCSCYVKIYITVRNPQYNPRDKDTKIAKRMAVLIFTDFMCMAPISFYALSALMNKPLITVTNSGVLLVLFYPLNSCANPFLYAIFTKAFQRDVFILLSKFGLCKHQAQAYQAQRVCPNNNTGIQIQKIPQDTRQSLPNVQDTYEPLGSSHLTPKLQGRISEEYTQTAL
Chain of hCG receptor on MA-10 cells (transformed murine Leydig cells) (murine) (P30730 27-700): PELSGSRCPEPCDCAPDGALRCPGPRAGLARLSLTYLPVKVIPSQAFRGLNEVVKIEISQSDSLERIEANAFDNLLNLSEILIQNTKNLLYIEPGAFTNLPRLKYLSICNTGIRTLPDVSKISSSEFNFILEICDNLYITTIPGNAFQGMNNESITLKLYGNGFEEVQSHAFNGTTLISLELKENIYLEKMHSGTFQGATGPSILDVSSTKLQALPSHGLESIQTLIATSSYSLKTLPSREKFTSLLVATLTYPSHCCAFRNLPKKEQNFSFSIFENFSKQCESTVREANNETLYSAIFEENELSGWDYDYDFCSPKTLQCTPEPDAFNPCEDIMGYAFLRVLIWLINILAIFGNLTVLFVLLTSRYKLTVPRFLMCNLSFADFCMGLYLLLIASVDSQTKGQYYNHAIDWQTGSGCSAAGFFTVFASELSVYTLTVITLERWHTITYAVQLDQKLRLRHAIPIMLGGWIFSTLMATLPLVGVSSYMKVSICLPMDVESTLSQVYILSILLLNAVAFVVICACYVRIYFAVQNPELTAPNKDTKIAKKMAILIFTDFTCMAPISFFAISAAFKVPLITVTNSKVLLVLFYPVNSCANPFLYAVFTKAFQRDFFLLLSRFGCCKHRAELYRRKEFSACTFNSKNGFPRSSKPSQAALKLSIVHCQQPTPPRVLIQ

Consider “hTSH mutant WT α / hTSHβ-I58R (from UniProt P01215 25-116; P01222 21-132) (ligand)”, for which the potency, fold increase over hTSH in experiment [1] and in experiment [2] was 2 to 4 fold in each case.

In experiment [3], “hCG mutant α-Q13K+P16K+Q20K / WT-hCGβ (from UniProt P01215 25-116; P0DN86 21-165) (ligand)” registered a Progesterone synthesis in MA 10 cells, EC50 of 1.58 ng/mL and a Progesterone synthesis in MA 10 cells, Max of 216%.

Regarding “hTSH mutant α-Q20K / WT-hTSHβ (from UniProt P01215 25-116; P01222 21-132) (ligand)”, in experiment [1], the cAMP stimulation in JP09 cells, EC50 was found to be 1.16 ng/mL and the cAMP stimulation in JP09 cells, relative potency (WT=1) was 5.8 fold (WT=1). This substance also displayed an EC25 of inhibition of 125I-bTSH binding in experiment [4] of 21.3 ng/mL.

On to “hTSH mutant α-P16K+Q20K / WT-hTSHβ (from UniProt P01215 25-116; P01222 21-132) (ligand)”, for which, in experiment [1], the cAMP stimulation in JP09 cells, EC50 came out at 0.37 ng/mL and the cAMP stimulation in JP09 cells, relative potency (WT=1) is 11.8 fold (WT=1). Besides, in experiment [4], the EC25 of inhibition of 125I-bTSH binding is 6.4 ng/mL.

As to “hTSH mutant α-Q13K+P16K+Q20K+E14K / TSHβ-L69R (from UniProt P01215 25-116; P01222 21-132) (ligand)”, in experiment [1], the cAMP stimulation in JP09 cells, EC50 turned out to be 0.07 ng/mL; the cAMP stimulation in JP09 cells, relative potency (WT=1) was 95.7 fold (WT=1); the efficacy (maximal response) of cAMP stimulation, fold over WT-hTSH was > 1.5 fold. This substance yielded an EC25 of inhibition of 125I-bTSH binding in experiment [4] of 1.3 ng/mL.

As for “hTSH mutant α-Q13K+P16K+Q20K / TSHβ-L69R (from UniProt P01215 25-116; P01222 21-132) (ligand)”, in experiment [1], the cAMP stimulation in JP09 cells, EC50 amounted to 0.19 ng/mL and the cAMP stimulation in JP09 cells, relative potency (WT=1) was 35.3 fold (WT=1). For the same substance, in experiment [2], the half-maximal stimulation of 3H-thymidine incorporation in FRTL-5 cells, fold lower concentration than WT-hTSH was 27 fold. In experiment [4], this substance gave an EC25 of inhibition of 125I-bTSH binding of 1.8 ng/mL.

For “hCG mutant α-P16K+Q20K / WT-hCGβ (from UniProt P01215 25-116; P0DN86 21-165) (ligand)”, in experiment [3], the Progesterone synthesis in MA 10 cells, EC50 came out at 1.7 ng/mL and the Progesterone synthesis in MA 10 cells, Max is 212%.

In experiment [3], “hCG mutant α-R67K / WT-hCGβ (from UniProt P01215 25-116; P0DN86 21-165) (ligand)” yielded a Progesterone synthesis in MA 10 cells, EC50 of 4.6 ng/mL and a Progesterone synthesis in MA 10 cells, Max of 145%.

In the case of “hCG mutant α-Q20K / WT-hCGβ (from UniProt P01215 25-116; P0DN86 21-165) (ligand)”, in experiment [3], the Progesterone synthesis in MA 10 cells, EC50 came to 2.96 ng/mL and the Progesterone synthesis in MA 10 cells, Max amounted to 134%.

Regarding “hTSH mutant α-Q13K / WT-hTSHβ (from UniProt P01215 25-116; P01222 21-132) (ligand)”, in experiment [1], the cAMP stimulation in JP09 cells, EC50 is 1.89 ng/mL and the cAMP stimulation in JP09 cells, relative potency (WT=1) was 3.5 fold (WT=1). For the same substance, the EC25 of inhibition of 125I-bTSH binding in experiment [4] was determined as 22.5 ng/mL.

As for “hTSH mutant α-Q13K+P16K+Q20K+E14K / WT-hTSHβ (from UniProt P01215 25-116; P01222 21-132) (ligand)”, in experiment [1], the cAMP stimulation in JP09 cells, EC50 is 0.17 ng/mL; the cAMP stimulation in JP09 cells, relative potency (WT=1) was 39.4 fold (WT=1); the efficacy (maximal response) of cAMP stimulation, fold over WT-hTSH was > 1.5 fold. In experiment [4], the EC25 of inhibition of 125I-bTSH binding is 2.1 ng/mL.

As to “hTSH mutant α-Q50P / WT-hTSHβ (from UniProt P01215 25-116; P01222 21-132) (ligand)”, in experiment [1], the cAMP stimulation in JP09 cells, EC50 amounted to 5.54 ng/mL and the cAMP stimulation in JP09 cells, relative potency (WT=1) is 1.2 fold (WT=1). Moreover, the EC25 of inhibition of 125I-bTSH binding in experiment [4] is 77.5 ng/mL.

In experiment [3], “hCG mutant α-Q50P / WT-hCGβ (from UniProt P01215 25-116; P0DN86 21-165) (ligand)” returned a Progesterone synthesis in MA 10 cells, EC50 of 3.9 ng/mL and a Progesterone synthesis in MA 10 cells, Max of 137%.

In experiment [1], “hTSH mutant WT α / hTSHβ-I58R+E63R (from UniProt P01215 25-116; P01222 21-132) (ligand)” gave an efficacy of cAMP stimulation in CHO-hTSH cells (Fig. 2g), fold increase of 1.5 fold and a potency of cAMP stimulation in CHO-hTSH cells (Fig. 2g), fold over wild type hTSH of 15 fold.

Consider “hTSH mutant α-P16K+F17T / WT-hTSHβ (from UniProt P01215 25-116; P01222 21-132) (ligand)”, for which, in experiment [1], the cAMP stimulation in JP09 cells, EC50 worked out at 3.52 ng/mL and the cAMP stimulation in JP09 cells, relative potency (WT=1) was 1.9 fold (WT=1).

Take “hCG mutant α-T11K / WT-hCGβ (from UniProt P01215 25-116; P0DN86 21-165) (ligand)”: in experiment [3], the Progesterone synthesis in MA 10 cells, EC50 was 2.79 ng/mL and the Progesterone synthesis in MA 10 cells, Max came to 156%.

In experiment [3], “hCG mutant α-Q13K+P16K+Q20K+E14K / WT-hCGβ (from UniProt P01215 25-116; P0DN86 21-165) (ligand)” displayed a Progesterone synthesis in MA 10 cells, EC50 of 1.65 ng/mL and a Progesterone synthesis in MA 10 cells, Max of 205%.

For the substance “hTSH mutant WT α / hTSHβ-I58R+E63R+L69R (from UniProt P01215 25-116; P01222 21-132) (ligand)”, in experiment [1], the efficacy of cAMP stimulation in CHO-hTSH cells (Fig. 2g), fold increase came out at 1.7 fold and the potency of cAMP stimulation in CHO-hTSH cells (Fig. 2g), fold increase was 50 fold.

In the case of “hTSH mutant WT α / TSHβ-L69R (from UniProt P01215 25-116; P01222 21-132) (ligand)”, in experiment [1], the cAMP stimulation in JP09 cells, EC50 stood at 2.75 ng/mL and the cAMP stimulation in JP09 cells, relative potency (WT=1) is 2.4 fold (WT=1).

Consider “hCG mutant α-Q13K / WT-hCGβ (from UniProt P01215 25-116; P0DN86 21-165) (ligand)”, for which, in experiment [3], the Progesterone synthesis in MA 10 cells, EC50 was 2.46 ng/mL and the Progesterone synthesis in MA 10 cells, Max is 115%.

Consider “hTSH mutant α-R67K / WT-hTSHβ (from UniProt P01215 25-116; P01222 21-132) (ligand)”, for which, in experiment [1], the cAMP stimulation in JP09 cells, EC50 was found to be 7.36 ng/mL and the cAMP stimulation in JP09 cells, relative potency (WT=1) was 0.9 fold (WT=1). Moreover, the EC25 of inhibition of 125I-bTSH binding in experiment [4] came out at 62.5 ng/mL.

In experiment [4], “WT-hTSH (wild-type recombinant human thyroid stimulating hormone) (from UniProt P01215 25-116; P01222 21-132) (ligand)” yielded an EC25 of inhibition of 125I-bTSH binding of 81.3 ng/mL.

Consider “hTSH mutant α-P16K / WT-hTSHβ (from UniProt P01215 25-116; P01222 21-132) (ligand)”, for which, in experiment [1], the cAMP stimulation in JP09 cells, EC50 is 1.05 ng/mL and the cAMP stimulation in JP09 cells, relative potency (WT=1) is 6.4 fold (WT=1). The substance further displayed a fold greater affinity than WT in experiment [5] of 5 fold. In experiment [4], this substance came in with an EC25 of inhibition of 125I-bTSH binding of 189 ng/mL.

For the substance “hTSH mutant WT α / hTSHβ-E63R (from UniProt P01215 25-116; P01222 21-132) (ligand)”, the potency, fold increase over hTSH in experiment [1] and in experiment [2] was 2 to 4 fold each time.

Regarding “hTSH mutant α-Q13K+P16K+Q20K / WT-hTSHβ (from UniProt P01215 25-116; P01222 21-132) (ligand)”, in experiment [1], the cAMP stimulation in JP09 cells, EC50 was 0.28 ng/mL and the cAMP stimulation in JP09 cells, relative potency (WT=1) is 23.9 fold (WT=1). The half-maximal stimulation of 3H-thymidine incorporation in FRTL-5 cells, fold lower concentration than WT-hTSH in experiment [2] amounted to 18 fold. This substance returned an EC25 of inhibition of 125I-bTSH binding in experiment [4] of 2.3 ng/mL.

“hTSH mutant α-T11K / WT-hTSHβ (from UniProt P01215 25-116; P01222 21-132) (ligand)”: in experiment [1], the cAMP stimulation in JP09 cells, EC50 came out at 4.47 ng/mL and the cAMP stimulation in JP09 cells, relative potency (WT=1) was 1.5 fold (WT=1). Also, the EC25 of inhibition of 125I-bTSH binding in experiment [4] was 68.3 ng/mL.

In experiment [3], “hCG mutant α-P16K / WT-hCGβ (from UniProt P01215 25-116; P0DN86 21-165) (ligand)” returned a Progesterone synthesis in MA 10 cells, EC50 of 2.05 ng/mL; a Progesterone synthesis in MA 10 cells, Max of 161%; a stimulation of progesterone production in MA-10 cells, fold more active than WT-hCG of 4 fold. This substance also had a fold more active than WT-hCG in receptor binding activity in experiment [6] of 4 fold.
